The values that follow come from patent US20190257845A1, “METHOD FOR CALORIMETRIC DETERMINATION OF THE LIPOPROTEIN LIPASE ACTIVITY IN HUMAN PLASMA ENVIRONMENT” (Tallinn University of Technology, priority 2016, published 2019).

The Kd is the constant that tells how readily two partners part at equilibrium.

The target of experiment [1] is T1, lipoprotein lipase (LPL) (Bos taurus, UniProt P11151).
T1 construct: Bovine LPL was purified from milk; from tissue; host or cells: bovine milk
T1 sequence (P11151 29-478): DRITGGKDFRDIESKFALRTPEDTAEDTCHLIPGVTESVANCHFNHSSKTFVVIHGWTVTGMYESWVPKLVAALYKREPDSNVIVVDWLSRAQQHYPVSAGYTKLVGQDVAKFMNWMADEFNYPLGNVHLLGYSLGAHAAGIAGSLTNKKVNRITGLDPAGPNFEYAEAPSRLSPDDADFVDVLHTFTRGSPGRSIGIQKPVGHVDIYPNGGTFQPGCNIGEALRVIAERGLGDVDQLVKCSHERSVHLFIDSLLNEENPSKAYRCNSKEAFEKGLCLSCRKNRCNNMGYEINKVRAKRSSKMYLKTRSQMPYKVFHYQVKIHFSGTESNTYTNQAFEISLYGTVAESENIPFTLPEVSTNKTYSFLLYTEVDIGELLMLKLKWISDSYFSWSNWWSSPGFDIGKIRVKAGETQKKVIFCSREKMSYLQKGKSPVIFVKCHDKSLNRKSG
Kind of experiment: ITC measurement of LPL activity in human plasma with added regulators or inhibitors. Particulars: for effect on activity of LPL in plasma: LPL 0.6 nM. It counts as biochemical, bovine. How it is done:
Preparing the reagents—Bovine LPL was purified from milk (Bengtsson-Olivecrona & Olivecrona 1991) and dialysed to buffer containing 10 mM TRIS, pH 8.5 (4° C.), 4 mM sodium deoxycholate. Stock solutions of 0.5 mg/ml LPL were stored at −80° C. The N-terminal coiled-coil domain of human angiopoietin-like protein 4 (ANGPTL4), residues 26-184, was expressed in E. coli and purified as described (Robal et al. 2012). Full-length human angiopoietin-like protein 3 (ANGPTL3) expressed in Sf 21 cells was obtained from R&D Systems (USA). Apolipoprotein C-III0 was from human blood plasma (Bengtsson-Olivecrona & Sletten 1990). Apolipoprotein C-II and apolipoprotein A-V were expressed in E. coli and purified as described (Shen et al. 2010; Beckstead et al. 2003). A synthetic peptide corresponding to the N-terminal domain of human GPIHBP1, residues 23-51, was bought from Caslo (Denmark). The sequence of the peptide was as follows: […]. Antibodies (goat IgG) to human hepatic lipase were raised in a goat against hepatic lipase isolated from human post-heparin plasma (Olivecrona & Olivecrona 2000). The IgG fraction was isolated using Protein-A columns and the final preparation contained 5 mg protein per milliliter in 20 mM Na-phosphate buffer and 0.15 M NaCl (pH 7.4).
Sample preparation—Before experiments the human plasma samples were diluted 1.2 times with TRIS buffer pH 7.4 or with the additions specified for each experiment. The final concentration of TRIS was 20 mM in all cases. Stock solutions of LPL were diluted in cold 10 mM TRIS, pH 8.5, containing 4 mM sodium deoxycholate. In this buffer, LPL is stable for a long period of time, even at low protein concentrations The final concentration of deoxycholate during incubations with plasma or lipoproteins was 10 to 100 times lower than the initial. […] In experiments with post-heparin plasma, antibodies to hepatic lipase (in PBS) or the same volume of PBS only were added (180 μl of IgG or PBS was mixed with 360 μl of post-heparin plasma) and the mixture was then incubated for 2 hours on ice prior to experiments (Olivecrona & Olivecrona 2000). All samples were degassed under vacuum for 15 minutes before the ITC experiments.
(§1) ITC measurements—Most of the experiments were performed on an Nano ITC model 5300 (TA Instruments, USA) at 25° C. A MicroCal Auto-iTC200 (GE Healthcare) instrument was used for experiments regarding relationship between total heat production and released fatty acids. In a typical experiment performed by Nano ITC, the lipase substrate (plasma, Intralipid 20% or VLDL) with or without added ligands was placed into the calorimetric cell (1035 μl) and the syringe (250 μl) was filled with LPL-containing solution (bovine LPL or post-heparin plasma) (see FIG. 1A). MilliQ water was loaded into the reference cell (1032 μl). The stirring speed in the sample cell was 400 rpm. The baseline was left to stabilize for at least 1 hour before injections of LPL or post-heparin plasma. In all experiments, the first injection was 2 μl and after that single or sequential injections of 10 to 25 μl were made. The interval between the injections was from 200 s to 500 s. In experiments performed by MicroCal Auto-iTC200, 400 μl of lipase substrate (plasma), 400 μl of equilibration buffer (20 mM TRIS, pH 7,4) and a sufficient volume of LPL (0.8 μM) were placed on the loading plate. The calorimetric cell (200 μl) was rinsed with equilibration buffer and loaded with 200 μl of substrate in an automated fashion. The syringe was loaded with 40 μl of LPL-containing solution. The stirring speed in the sample cell was 600 rpm and the baseline was stabilized automatically. The first injection of LPL was 0.2 μl and the second injection was 2 μl. The experiment time was 1 hour to allow full hydrolysis of plasma triglycerides.After each experiment the Nano ITC sample cell was washed with the following solutions, one after the other: MilliQ water, 2% SDS, 40 mM NaOH and finally 95% ethanol. […]
For orientation: In ITC the heat of successive injections is recorded.

Experiment [2] deals with T1, lipoprotein lipase (LPL). Kind of experiment: ITC measurement of Intralipid hydrolysis by LPL, activation by apoC-II. It counts as biochemical, bovine. The conditions noted are these: Intralipid substrate. The procedure:
The substrate mixture composition was as follows: 1 mg triglyceride/ml Intralipid, 10 mg/ml BSA, 10 IU/ml heparin, 0.15 M NaCl, 10 mM TRIS pH 7.4. […] Final concentration of LPL was 1.2 nM in all experiments.
Heat rate points at 200 s were obtained from FIG. 5a. The data were fitted using the following equation (Quinn et al. 1983): […]
as §1, with “[…] Raw ITC data were analysed using” for “The experiment time was 1 hour to allow full hydrolysis of plasma triglycerides.After each experiment”, “NanoAnalyze (TA Instruments) Or MicroCal Origin (GE Healthcare).” for “Nano ITC sample cell was washed with the following solutions, one after the other: MilliQ water, 2% SDS, 40 mM NaOH and finally 95% ethanol.”

On to `CCCCCCCCCCC[C@@H](C[C@@H]1OC(=O)[C@H]1CCCCCC)OC(=O)[C@H](CC(C)C)NC=O` [THL, tetrahydrolipstatin, reference compound], for which, at lipoprotein lipase (LPL) [1] (10 μM THL, human plasma, LPL 1 nM, unchanged afterwards), the “immediate drop of the activity of LPL” value was determined as 80%. The “THL concentration at which inhibition of LPL was detectable” value at lipoprotein lipase (LPL) [1] (human plasma, LPL 1 nM) stood at 90 nM.

“QQEEEEEDEDHGPDDYDEEDEDEVEEEET [N-terminal peptide of GPIHBP1, synthetic peptide corresponding to the N-terminal domain of human GPIHBP1, residues 23-51, reference compound]”: the “protection of LPL from inactivation by ANGPTL4” value with lipoprotein lipase (LPL) [1] (100 nM ANGPTL4, LPL 0.6 nM, TG 1 mM) is “could not protect LPL from inactivation”.

B1: ANGPTL3: Full-length human angiopoietin-like protein 3 expressed in Sf 21 cells, from R&D Systems (protein, UniProt Q9Y5C1 1-460, looked up)
chain: MFTIKLLLFIVPLVISSRIDQDNSSFDSLSPEPKSRFAMLDDVKILANGLLQLGHGLKDFVHKTKGQINDIFQKLNIFDQSFYDLSLQTSEIKEEEKELRRTTYKLQVKNEEVKNMSLELNSKLESLLEEKILLQQKVKYLEEQLTNLIQNQPETPEHPEVTSLKTFVEKQDNSIKDLLQTVEDQYKQLNQQHSQIKEIENQLRRTSIQEPTEISLSSKPRAPRTTPFLQLNEIRNVKHDGIPAECTTIYNRGEHTSGMYAIRPSNSQVFHVYCDVISGSPWTLIQHRIDGSQNFNETWENYKYGFGRLDGEFWLGLEKIYSIVKQSNYVLRIELEDWKDNKHYIEYSFYLGNHETNYTLHLVAITGNVPNAIPENKDLVFSTWDHKAKGHFNCPEGYSGGWWWHDECGENNLNGKYNKPRAKSKPERRRGLSWKSQNGRLYSIKSTKMLIHPTDSESFE
modifications: full-length
notes: Full-length human angiopoietin-like protein 3 expressed in Sf 21 cells, from R&D Systems
As to B1, the “concentration at which effect on LPL in plasma was detectable” value with lipoprotein lipase (LPL) [1] (human plasma) is listed as “detectable already at nanomolar concentrations”.

B2: apoC-II: Apolipoprotein C-II expressed in E. coli; activator of LPL (protein, UniProt P02655 29-101, looked up)
Apolipoprotein C-II: DEMPSPTFLTQVKESLSSYWESAKTAAQNLYEKTYLPAVDEKLRDLYSKSTAAMSTYTGIFTDQVLSVLKGEE
In the case of B2, the “estimated maximal activation factor of LPL” value with lipoprotein lipase (LPL) [2] (1.2 nM LPL, apoC-II 0 to 1000 nM, heat rate at 200 s, model of Quinn et al. 1983) is 4.2±1.2. For the same molecule, in the experiment with lipoprotein lipase (LPL) [2] (1.2 nM LPL, heat rate at 200 s, model of Quinn et al. 1983, read-out: Kd value (affinity of apoC-II for LPL)), the Kd worked out at 22 ± 8 nM. Besides, in the experiment with lipoprotein lipase (LPL) [2] (LPL not stable without apoC-II or below 100 nM), the “effect on stability of LPL” value is on record as “stabilized LPL”.

B3: apoA-V: apolipoprotein A-V expressed in E. coli (protein, UniProt Q6Q788 24-366, looked up)
Apolipoprotein A-V: RKGFWDYFSQTSGDKGRVEQIHQQKMAREPATLKDSLEQDLNNMNKFLEKLRPLSGSEAPRLPQDPVGMRRQLQEELEEVKARLQPYMAEAHELVGWNLEGLRQQLKPYTMDLMEQVALRVQELQEQLRVVGEDTKAQLLGGVDEAWALLQGLQSRVVHHTGRFKELFHPYAESLVSGIGRHVQELHRSVAPHAPASPARLSRCVQVLSRKLTLKAKALHARIQQNLDQLREELSRAFAGTGTEEGAGPDPQMLSEEVRQRLQAFRQDTYLQIAAFTRAIDQETEEVQQQLAPPPPGHSAFAPEFQQTDSGKVLSKLQARLDDLWEDITHSLHDQGHSHLGDP
For the molecule B3, the “effect on activity of LPL in plasma” value was “did not change the activity of LPL” with lipoprotein lipase (LPL) [1] (10 nM apoA-V, TG 1 mM) and “some inhibition was observed” in the experiment with lipoprotein lipase (LPL) [1] (100 nM apoA-V, TG 1 mM).
